# In patent US20230212643, “DNA NANOARCHITECTURES FOR PATTERN-RECOGNIZED […] OF DISEASES” (RENSSELAER POLYTECHNIC INSTITUTE, published 2023):
# Biological target: Dengue virus envelope protein domain III (ED3), on intact DENV serotype 2 virions (Dengue virus 2 (New Guinea C), UniProt P14340 P14340:576-674)
# Experiment: inhibition; plaque reduction on Vero cells, DENV2 NGC in human serum, 37 C
# Conditions: protein: virion; tags: none
# Procedure: The in vitro inhibition of DENV through standard antiviral, plaque forming EC₅₀ assays was also examined. DENV viral particles were incubated with different concentrations of each inhibitor in human serum and the remaining infectivity was determined by a plaque reduction assay. The dose-dependent inhibition of DENV for the monovalent aptamer and each of the scaffold-aptamer complexes was examined (FIG. 5A). The EC₅₀ value (half maximal effective concentration) of the scaffold for DENV infection inhibition was 2 nM, whereas the EC₅₀ value of the monovalent aptamer was 15 μM (FIG. 5B).
# For the in vitro inhibition of DENV (EC₅₀ and plaque assays), vero cells were seeded at a density of 3×10⁵ cells/3 mL MEM culture medium (with 10% FBS) in each well of a 6-well plate 72 h prior to infection. Approximately 200 plaque forming units of DENV serotype 2 (DENV2 NGC), after dilution in Hank's Balanced Salt Solution (HBSS) (GIBCO, Grand Island, N.Y.) including 0.4% (w/v) bovine albumin fraction V (BSA fraction V, GIBCO), were incubated at a 1:1 ratio in human serum (with or without an inhibitor). The mixtures were incubated in a 5% CO₂ incubator at 37° C. for 1 h. Then virus-inhibitor or virus-control mixtures were used directly to infect the confluent monolayer of Vero cells or diluted in MEM+2% FBS before being added onto the Vero cell monolayers. The inoculum was 100 μl/well. […]
# Chain of Dengue virus envelope protein domain III (ED3), on intact DENV serotype 2 virions (P14340 576-674, one chain of several): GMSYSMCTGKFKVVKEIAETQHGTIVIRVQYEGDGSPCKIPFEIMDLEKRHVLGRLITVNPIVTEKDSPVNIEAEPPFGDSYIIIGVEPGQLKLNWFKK
binder,measurement,value
GCACCGGGAGGGAGGGAGGGCTTTT (ssDNA) [monovalent ED3-binding DNA aptamer],EC50,15 µM
